# Data published in the nanobody polyreactivity screen of Harvey et al. (2022).
# Test: yeast display, Sf9 membrane polyspecificity reagent, FACS + sequencing; frameworks hold sequencing errors
# Procedure, shortened: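 After 36–48 hours of galactose induction, yeast (Saccharomyces cerevisiae BJ5465) displaying a synthetic nanobody library were stained at 4 °C for 1 hour with 10% biotinylated, detergent-solubilized Sf9 membrane reagent. Streptavidin microbeads enriched the stained cells before FACS sorting into low and high (top ~1%) gates on anti-HA and streptavidin fluorescence. Each clone's polyreactivity label reflects its gate of origin.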
row,Sequence,polyreactivity (PSR sort gate)
1,QVQHVESGGGLVQAGGSLRLTCAASGYIFYYNAMGWYRHAPGKEREMVAAINYSGTSTYYADSVKGRFTISRDNAKNTVYLQMNSLKPEDTAVFYCAKVPHYPLAGRLAILDYWGQGSQVTVSS,high polyreactivity
2,QVQHVESGGGLVQAGGSLRLTCAATGFTFATYTMGWYRQAPGKERELFAAISSGGNTNYADSVKGRFTISRDNAKNTVYLQMNSLKPEDTAVYYCARGATLLQYYYWGVYEYDSWGQGTQVTVSS,low polyreactivity
3,QVQHVESGGGLVQAGGTLRLSSAASGSTYRWYAMGSYRQAPGKERELVAAITFRGGRTYYADSVKGRFTISRDNAKNTVYLQMNSLKPEDTAVYYFNAVTYSSPYRFDYWGQGTQVTVSS,low polyreactivity
4,QVQHVESGGGLVQAGRSLRLTSAASGIIFSGYAIGWYRQAPGKERHLVAAISSRCGGTYYADSVKGRFTISRDNAKNTVYFPLNSLKPEDTALYYCAAKRPACIQYSYYYWGQGTQVTVSS,high polyreactivity
5,QVQHVESGGGLVQAGVSLRLSCAASGFTFHRNAMGWSTQAPGKERELLAAITMKGGSSTYYADSVKGRFTISRDNAKNTVYLQMNSLKPEDTAVYYCARDSYSYTFSKNSDPAEYDYWGQGTQVTLSS,low polyreactivity
6,QVQHVESGGGLVQAGVSLRLSCAASGSTITYNAMGWYRQAPGKERELVAAITVSDGSTYYADSVKGRFTISRDNAKNTVYLQMNSLKPEDTAVYYCNAYAVYLRYLWYDYWGQGTQVTVSS,low polyreactivity
7,QVQHVESGGGLVQARGSLRLSCAASGFTFLAYAMGWYRQAPGKERELVAAINSSDCTTHYADSVKGRFTISRDYAKNTVYLQMNSLKPVDTAVYYCNTDWAYLSDYWGQGTQVTVSS,low polyreactivity
8,QVQHVESGGGLVQARGSLRLSCAASGSIFDLNAMGRYRQAPGKERELVAAISSGGGTYYADSVKGRFTISRDNSKNTVYLQMNSLKPVDTAVYYCKRVTRWTYNYWGQGTQVTVSS,high polyreactivity
9,QVQHVESGGGLVQARGSLRLTCAASGLILSSNAMGWYRQAPGKERELVAAITWDGDRTYADSVKGRFTISRDNAKNTVYLQRNSLKPEDTAVYYCAADKQYYWYDWSYDYWGQGTQVTVSS,low polyreactivity
10,QVQHVESGGGLVQEGGRLRLSCAASGITFGANTMGWSRQAPGKERELVAAITISGGITHYADSVKGRFTISRDNAKNTVYLQMNSLKPEDTAVYYCAAGAYWRLYPYRLRNVGRMYYWGQGTQVTVSS,low polyreactivity
11,QVQHVESGGGVVQAGGSLRLSCAASVRTFRYYDMGWYRQAPGTERELVAAITSRGGSSYYADSVKGRFTISRDNAKYTVYLQMNSLKPEDTAVYYCNAYPVQIFYLGNRQYNYWGQGTQVTVSS,high polyreactivity
12,QVQHVESGGRLVQAGGSLRLSCAASGSIFAAYAMGWYRQAPGKERELVAAISRSGASTYYADSVKGRFTISRDNAKNTVYLQMNSLKPVDTAVYYCAADTYAYPHDNYDYWGQGTQVTVSS,low polyreactivity
13,QVQHVESGGRLVQAVGSLRLSCAASGFTFTRHAMGWYRQAPGKERDLVSRISSRGGSTYYADSVKGRFTISRDNAKNTVYLQMNSLKPEDTAVFYCAAPVRKSSYTRYDSWGQGTQVTVSS,high polyreactivity
14,QVQHVESGGVIVQAGGSHRLSCAASGHIFFYYTMGWYRQAPGKERELVAGITIGGSTNYADSVKGRFTISRDTAKNTVYLQMNSLKPEDTAVYYCNVVKYVYIYSYWEYYYWGQGTQVTVSS,low polyreactivity
15,QVQHVESGRGLVQAGGSLRLSCASSGFTFRRNAMGWYRQAPGKVRELVAVITSSARTNYADSVKGRFTISRDNAKNTVYLQMKSLKPEDTAVYYCNAYGYRQSSSDKYGYWGQCTQVTVSS,high polyreactivity
16,QVQHVESRGGLVQAGGSLRLSCAASGFILYLNAMGWYRQAPGKERELVAAITSDGGSTYYADSVKGRFTISRDNAKNTVYLQMNSLKPEDTAVYYCAADNYPDEYDYWGQGTQVTVSS,low polyreactivity
17,QVQHVESRGGLVQAGGSLRLSCAASGIILSPYAMGWYRQAPGKERELVAAISRSGGSTYYADSVKGRFTISRDNAKNTVYLQMNSLKPEDTAVYYCAARYHVYSNYYKYDYCGQGTQVTVSS,high polyreactivity
18,QVQHVESRGGLVQAGGSLRLSCAASGLIFALYAMGWYRLAHGKERELVAAIDWSGGSTYYADSVKGRFTISRDNAKNTVYLQMNCLKPEDTAVYYCAADISSSPGNDYWGQGTQVTVSS,high polyreactivity
19,QVQHVESVGGLLQAGGSLPLSCASSGSTFTGYAMGRYREAPGIVRELVAAISSSGGRTYYADSVKGRFTISRDNAKNTVYLQMNSLKPEDTAVYYCAVRPRYRPSGYVEYDSWGQSTQVTVSS,high polyreactivity
20,QVQHVESVGGLVQAGGSLRLICAASGGTIDTYAIGWYRQAPGKERELVAGIDWSGGSTYYADSVKGRFTISRDNSKNTVYLQMNSLKPEDTAVYYCAADYYYPSQMDYWGQGTQVTVSS,low polyreactivity
21,QVQHVESVGGLVQAGGSLRLSCAASGITFNYNAMGWYRQAPGKERELVAAIRGSDSTTYYADSVKGRFTISRDNAKNTVYLQMNSLKPEDTAVYYCAAVGVVPRKKSARVYYWGQGTQVTVSS,low polyreactivity
22,QVQHVESVGGLVQAGGSLRLSCAASGRTFTSYDMGWYRQAPLTEREVVAAITGSYTYYADSVKGRFTISRDNAKNTVYLQFNSLKPEDTAVYYCAADEDDVVSGFLRYFYVSYYYWGQGTQVTVSS,low polyreactivity

row,Sequence,polyreactivity (PSR sort gate)
1,QVQHVESVGGLVQAGGSLRLSCAASGYIFIRYPMGCYRQANGKERELDAAITWSDGTTYYADSVKGRFTISRDNAKNTVYLQMNSLKPEDTAVYYCAADRKVESVSRYDYWGQGTQVTVSS,low polyreactivity
2,QVQHVETGGGLVQAGGSLRLSCAASGFIFTRYVMGWSRQAPGKERELVAAISRIGASTYYADSVKGRFSISRDNAKNPVYLQMNSLKPEDTAVYYCNVVSGGYFEYEYCGQGTQVTVSS,high polyreactivity
3,QVQHVETGGGLVQAGGSLRLSCAASGFLFYFNDKGWYRQAPGKERELVASITSGASTNYADSVKGRFTISRDNAKNTVYLQMNSLKPEDTAVYYCAAAYFWLYPYVEYDYWGQGTQVTVSS,low polyreactivity
4,QVQHVETGGGLVQAGGSLRLSCDASGRIFYNYVMGWYRQAPGKERELVAAISFSSGNTYYADSVKGRFTISRDNAKNSVYLQMNSLTPEDTAVYYCNADIYTWFQIGGYQYDYWGQGTQVTVSS,low polyreactivity
5,QVQHVHSGGGLVQAGGSLRLTCAASGSTFVGNAMVRYRQATGKERELVATISNSGGRTYYADSVKGRFTISRDNPKNTVYLQMNSLKAEDTAVYFCAADHPAFVPVYSFDYWGQGTQVNVSS,low polyreactivity
6,QVQIEESGGGLDQAGGSLRLTCAASGFTIPSYTRGWYRQAPGKERELVAAISRSDGTTYYAYSVKGRFTISRDNAKNSVYLQLNSLKPEDTAVYYCNKAYKRYGYHYDYWGQGTQVTVSS,high polyreactivity
7,QVQIEESGGGLVQAGGSHRLSCAASGSTSYWYAMGWSRQAPRKERELVAAISSDDSTNYADSVKGRFTISRDNAKNTVYLQMNSLKPEDTAVYYFNREHYLIRYDYWGQGTQVTVSS,low polyreactivity
8,QVQIEESGGGLVQAGGSLRLSCAASGLIFYYYAMGWYRQAPRKERELVAVFTESGYSTYYADYVKGLFTISRDYAKNNDYLQMNRLKPEDTAVYYCAAHGRAYVGGVGDDYWGQGTQVTVSS,low polyreactivity
9,QVQIEESVGDLVQAGGSLRLICAASGRTFPVYDMGWYRQAPGKERELVAAISRRAVRTYYADSVKGRFTISRDIAKNTVYLQMNSLKPEDTAVYYCNAVLRKITYDYWGQGTQVTVSS,high polyreactivity
10,QVQIGESGGGLVQAGGSLRLSCAASGFIIGTNTMGWYRQAPGKERELVAAITSVGSTNYADSVKGRFTISRDNAKNTVYLQMNSLKPEDTAVYYCPATLYYQYGGDYWGQGTQVTVSS,low polyreactivity
11,QVQILESGVCLVQARGSLRLSCAASGRTFRSNAMGWYRQAPGKERDLVAAITSSGGRTYYADSVKGRFTISRDNAKNTVYLQMNILKPEDTAVYYCNAVLRQYYRAYDYWGQGTQGTVSS,high polyreactivity
12,QVQIVDSGGGLVQAGGSLRISCAASGYISRVYAMGWYRQAPRKERELVAAITRSTTYYADSVKGRFTISRDNAKNTVYLQMNSLKPEDSAVYYCNAVWASPGQVRMYYWGQGTQVNVSS,high polyreactivity
13,QVQIVESAAGIVQAGGSLRLSCAASGSIFLLYAIGWYRQAPGKEMEFVAAITRGGGSTYYADSVKGRFTISRDNEKNIDYLQINSLIPEDTAVYYWYKGFQYHNGSLVVAYDYWGQGTQVTVSS,low polyreactivity
14,QVQIVESAGGLVQAGGSLSLSCAASGITYVFYALGWYRQEPGKERELVSDMSWSGGITYYADSVMGRFTISRDNAKNTVYLQMNSLKPEDPAVYYCAATKRQTKYYGGTTDSIMYYWGQGTQVTVSS,low polyreactivity
15,QVQIVESCGALVQAGRSLSLSCAASGSTFWDNVMGSYRQAPGKERELVAASTSGGSTNYADSVKGRFTISRDNAMNTDYLQLNSLIPEDTAVYYCAAGWYLYVLPYRYYYWRQGTQVTVSS,low polyreactivity
16,QVQIVESGGALVQAGGSLSLSCAASRSTFYRNDMGWYRQAPGKEREFVAAISFRGGGTYADSVKGRFTISRDNAKITVYLQMNSLKPEDTAVYYCAADHLSYRRRYEYWGQGTQVTVSS,low polyreactivity
17,QVQIVESGGGIVQAGGSLRLSCGASGRTFYYYAMGWYRQAPGKERELVASITWSGSSTTYADSVKGRFTISRDNSKNTFVLQLNRLKQQASAVYYCAADPYFWGYHFRRYGSWGQGTQVTVSS,low polyreactivity
18,QVQIVESGGGLDQAGGSLRLSCAASGSTFVLNPMGWYRQAPGKERGMVAAISSGGRTYYADSVKGRFTISRDNAKNTVYLQMNSLKPEDTAVYYCAANPYRGGHGTLFGYWGQGSQVTVSS,high polyreactivity
19,QVQIVESGGGLFQAGGSLRLSCAASGLIFYSYAMGWYRQAPWKERELVAAISSGGGSTYYADSVKGRFTISRDNAKNTVYLQLNSLKPEDTAVYYCNRLYKYRTPDYDHWGQGTQVTVSS,high polyreactivity
20,QVQIVESGGGLVEAGGSLRLSCAASGRTFWYIAMGWYRQSPGKASELVAAISYTGSRTYYADSVKGRFTISRYNAKNTVYLQMNSLKPDDTAVYYCNALARRPDAYAHYGYWGQGTQVSVSS,high polyreactivity
21,QVQIVESGGGLVQAGGRLRLSFSASGIIFTGNAMGWYRQAPGKERELVAAITSGDTTNYADSVKGRFTISRDNAKNTVYLLMNSLKPEDTAVYYCAKELQVRQAGDYWGQGTQVTVSS,low polyreactivity
